Assay results as given in PMC11510448.

Experiments:
[1] = biological target: human Cu/Zn Superoxide Dismutase 1, A4V variant (Flag-SOD1-6His) (human) (UniProt P00441); test: native gel or EMSA; Native-PAGE of selected gel filtration fractions, SDS-free 10% gel, samples not boiled, run at RT, Coomassie stain; ESTDZ2 (ca. 28 kDa) as size standard
[2] = biological target: human Cu/Zn Superoxide Dismutase 1, A4V variant (Flag-SOD1-6His) (human) (UniProt P00441); test: SEC; gel filtration of the Ni-NTA eluate on a custom-made calibrated Sephacryl S-200 column (1.2 x 100 cm), TBS pH 7.4, UV detection at 280 nm

stoichiometry N [1]: 2
stoichiometry N [2]: 2
Substance: human Cu/Zn Superoxide Dismutase 1, A4V variant (Flag-SOD1-6His) (from UniProt P00441 6-154) (enzyme)
